Data taken from the supplement of paper PMC9112550, “Optimization of the antimicrobial peptide Bac7 by deep mutational scanning” (BMC Biology, 2022).

Test system: Escherichia coli TOP10
Assay: shrunken log2 fold change of peptide-encoding DNA abundance (4.5 h post-induction vs induction); higher = less antimicrobial activity (less host growth inhibition)
Details: time post-induction: 4.5 h; library: site-saturation at positions 5, 18, 19, 20
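Note: peptides expressed intracellularly from a pBAD plasmid library in pooled LB shake-flask culture, induced with 0.3% L-arabinose, DNA abundance read by NGS, three biological replicates, DESeq2 with apeglm shrinkage.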

RRIRKRPPRLPRPRPRPGTCPRP
shrunken log2 fold change: 0.258

RRIRMRPPRLPRPRPRPVEAPRP
shrunken log2 fold change: 0.396

RRIRTRPPRLPRPRPRPRICPRP
shrunken log2 fold change: -0.201

RRIRCRPPRLPRPRPRPTTLPRP
shrunken log2 fold change: -0.219

RRIRRRPPRLPRPRPRPSTVPRP
shrunken log2 fold change: -0.117

RRIRERPPRLPRPRPRPWLFPRP
shrunken log2 fold change: -0.0723

RRIRTRPPRLPRPRPRPRMWPRP
shrunken log2 fold change: 0.227

RRIRFRPPRLPRPRPRPDSKPRP
shrunken log2 fold change: -0.788

RRIRVRPPRLPRPRPRPYGEPRP
shrunken log2 fold change: -0.204

RRIRPRPPRLPRPRPRPTFKPRP
shrunken log2 fold change: 0.0985

RRIRMRPPRLPRPRPRPICNPRP
shrunken log2 fold change: -0.0126

RRIRPRPPRLPRPRPRPVCFPRP
shrunken log2 fold change: -0.027

RRIRLRPPRLPRPRPRPPKSPRP
shrunken log2 fold change: 0.275

RRIRNRPPRLPRPRPRPNMNPRP
shrunken log2 fold change: -0.265

RRIRERPPRLPRPRPRPDNHPRP
shrunken log2 fold change: -0.802

RRIRNRPPRLPRPRPRPRIIPRP
shrunken log2 fold change: -0.425

RRIRIRPPRLPRPRPRPAFHPRP
shrunken log2 fold change: -0.2

RRIRFRPPRLPRPRPRPPIEPRP
shrunken log2 fold change: -0.201

RRIRARPPRLPRPRPRPNGHPRP
shrunken log2 fold change: 0.53

RRIRIRPPRLPRPRPRPKCEPRP
shrunken log2 fold change: 0.07

RRIRDRPPRLPRPRPRPRILPRP
shrunken log2 fold change: -0.116

RRIRGRPPRLPRPRPRPKQDPRP
shrunken log2 fold change: 0.881

RRIRERPPRLPRPRPRPMLGPRP
shrunken log2 fold change: 0.00848

RRIRPRPPRLPRPRPRPGTEPRP
shrunken log2 fold change: -0.0123

RRIRFRPPRLPRPRPRPYKHPRP
shrunken log2 fold change: -0.911

RRIRPRPPRLPRPRPRPPFIPRP
shrunken log2 fold change: -0.0606

RRIRSRPPRLPRPRPRPLHYPRP
shrunken log2 fold change: -0.908

RRIRQRPPRLPRPRPRPWFDPRP
shrunken log2 fold change: -0.253

RRIRVRPPRLPRPRPRPQGLPRP
shrunken log2 fold change: -0.29

RRIRTRPPRLPRPRPRPMYVPRP
shrunken log2 fold change: 0.0319

RRIRSRPPRLPRPRPRPFFSPRP
shrunken log2 fold change: -0.13

RRIRRRPPRLPRPRPRPLYLPRP
shrunken log2 fold change: 0.926

RRIRVRPPRLPRPRPRPQRGPRP
shrunken log2 fold change: 0.198

RRIRHRPPRLPRPRPRPAFQPRP
shrunken log2 fold change: -0.0477

RRIRDRPPRLPRPRPRPQNNPRP
shrunken log2 fold change: -0.653

RRIRTRPPRLPRPRPRPFFGPRP
shrunken log2 fold change: 0.0239

RRIRTRPPRLPRPRPRPKFYPRP
shrunken log2 fold change: -0.272

RRIRGRPPRLPRPRPRPMFPPRP
shrunken log2 fold change: 0.193

RRIRLRPPRLPRPRPRPIALPRP
shrunken log2 fold change: -0.0572

RRIRMRPPRLPRPRPRPEQPPRP
shrunken log2 fold change: 0.395

RRIRNRPPRLPRPRPRPKWQPRP
shrunken log2 fold change: 0.182

RRIRHRPPRLPRPRPRPLKTPRP
shrunken log2 fold change: 0.0116

RRIRFRPPRLPRPRPRPNQTPRP
shrunken log2 fold change: 0.275

RRIRVRPPRLPRPRPRPMAHPRP
shrunken log2 fold change: 0.00201

RRIRARPPRLPRPRPRPKCSPRP
shrunken log2 fold change: 0.0215

RRIRYRPPRLPRPRPRPGCVPRP
shrunken log2 fold change: -0.202

RRIRQRPPRLPRPRPRPSTSPRP
shrunken log2 fold change: -0.126

RRIRSRPPRLPRPRPRPCGGPRP
shrunken log2 fold change: 0.012

RRIRNRPPRLPRPRPRPVGLPRP
shrunken log2 fold change: 0.0874

RRIRIRPPRLPRPRPRPRIFPRP
shrunken log2 fold change: -1.13

RRIRNRPPRLPRPRPRPQPKPRP
shrunken log2 fold change: 0.0668

RRIRYRPPRLPRPRPRPQELPRP
shrunken log2 fold change: -0.00884

RRIRSRPPRLPRPRPRPRDYPRP
shrunken log2 fold change: -0.341

RRIRLRPPRLPRPRPRPGKHPRP
shrunken log2 fold change: -0.0923

RRIRERPPRLPRPRPRPIFVPRP
shrunken log2 fold change: -0.295

RRIRCRPPRLPRPRPRPVAFPRP
shrunken log2 fold change: -0.169

RRIRGRPPRLPRPRPRPFGMPRP
shrunken log2 fold change: 0.228

RRIRGRPPRLPRPRPRPQLEPRP
shrunken log2 fold change: 0.838

RRIRYRPPRLPRPRPRPAEGPRP
shrunken log2 fold change: -0.169

RRIRKRPPRLPRPRPRPYVRPRP
shrunken log2 fold change: 0.00408

RRIRKRPPRLPRPRPRPYHFPRP
shrunken log2 fold change: -0.031

RRIRIRPPRLPRPRPRPSCNPRP
shrunken log2 fold change: -0.576

RRIRARPPRLPRPRPRPFSCPRP
shrunken log2 fold change: -0.122

RRIRRRPPRLPRPRPRPCWLPRP
shrunken log2 fold change: 0.202

RRIRWRPPRLPRPRPRPVVHPRP
shrunken log2 fold change: -0.102

RRIRERPPRLPRPRPRPLLTPRP
shrunken log2 fold change: -0.116

RRIRRRPPRLPRPRPRPIRYPRP
shrunken log2 fold change: 0.0578

RRIRSRPPRLPRPRPRPANEPRP
shrunken log2 fold change: 0.0433

RRIRPRPPRLPRPRPRPAICPRP
shrunken log2 fold change: 0.0446

RRIRVRPPRLPRPRPRPPQYPRP
shrunken log2 fold change: -0.19

RRIRIRPPRLPRPRPRPHDNPRP
shrunken log2 fold change: -0.53

RRIRGRPPRLPRPRPRPDWCPRP
shrunken log2 fold change: 1.37

RRIRTRPPRLPRPRPRPTYYPRP
shrunken log2 fold change: -0.359

RRIRSRPPRLPRPRPRPWVIPRP
shrunken log2 fold change: -0.201

RRIRRRPPRLPRPRPRPYVYPRP
shrunken log2 fold change: -0.209

RRIRWRPPRLPRPRPRPWKLPRP
shrunken log2 fold change: -0.00166

RRIRLRPPRLPRPRPRPFTIPRP
shrunken log2 fold change: -0.174

RRIRERPPRLPRPRPRPVFIPRP
shrunken log2 fold change: -0.281

RRIRCRPPRLPRPRPRPFKEPRP
shrunken log2 fold change: -0.342

RRIRLRPPRLPRPRPRPICFPRP
shrunken log2 fold change: 0.104

RRIRDRPPRLPRPRPRPMRQPRP
shrunken log2 fold change: 0.0681

RRIRGRPPRLPRPRPRPPHSPRP
shrunken log2 fold change: 0.568

RRIRVRPPRLPRPRPRPYHRPRP
shrunken log2 fold change: -2.18

RRIRQRPPRLPRPRPRPCTQPRP
shrunken log2 fold change: -0.0306

RRIRLRPPRLPRPRPRPWGVPRP
shrunken log2 fold change: 0.0612

RRIRERPPRLPRPRPRPGPFPRP
shrunken log2 fold change: -0.128

RRIRMRPPRLPRPRPRPNGSPRP
shrunken log2 fold change: -0.000925

RRIRVRPPRLPRPRPRPSKCPRP
shrunken log2 fold change: -0.0461

RRIRGRPPRLPRPRPRPWAHPRP
shrunken log2 fold change: 0.0122

RRIRARPPRLPRPRPRPHPDPRP
shrunken log2 fold change: 0.395

RRIRFRPPRLPRPRPRPHEFPRP
shrunken log2 fold change: -0.0308

RRIRCRPPRLPRPRPRPCCKPRP
shrunken log2 fold change: -0.0101

RRIRARPPRLPRPRPRPPDYPRP
shrunken log2 fold change: 0.406

RRIRIRPPRLPRPRPRPPMKPRP
shrunken log2 fold change: -0.789

RRIRPRPPRLPRPRPRPAKVPRP
shrunken log2 fold change: 0.045

RRIRARPPRLPRPRPRPHGCPRP
shrunken log2 fold change: 0.128

RRIRQRPPRLPRPRPRPNPHPRP
shrunken log2 fold change: 0.121

RRIRYRPPRLPRPRPRPMFIPRP
shrunken log2 fold change: -0.908

RRIRMRPPRLPRPRPRPLYTPRP
shrunken log2 fold change: -0.116

RRIRRRPPRLPRPRPRPYCMPRP
shrunken log2 fold change: -0.546

RRIRIRPPRLPRPRPRPSQRPRP
shrunken log2 fold change: -0.466

RRIRYRPPRLPRPRPRPDHIPRP
shrunken log2 fold change: 0.0129

RRIRCRPPRLPRPRPRPRIPPRP
shrunken log2 fold change: -0.00295

RRIRCRPPRLPRPRPRPIATPRP
shrunken log2 fold change: 0.366

RRIRRRPPRLPRPRPRPHEWPRP
shrunken log2 fold change: -0.00636

RRIRTRPPRLPRPRPRPFLIPRP
shrunken log2 fold change: -0.378

RRIRERPPRLPRPRPRPVQDPRP
shrunken log2 fold change: -0.0228

RRIRARPPRLPRPRPRPDFCPRP
shrunken log2 fold change: 0.168

RRIRCRPPRLPRPRPRPHYLPRP
shrunken log2 fold change: -0.574
